Where “and” joins values, the source holds several entries; their conditions need not be identical. Identical values can stand only once. Entries after “also recorded” stand apart in the source; their conditions may differ.
What was measured:
[1] = Relation between pH and activity of purified enzyme; assay type: biochemical
Experimental: (§1) By using the decrease of OD265 at the time of reaction as an index, the enzyme activity was measured. To 1.5 ml of solution obtained by mixing 0.017M 5′ AMP-2Na and 1/15M phosphate buffer solution (pH 5.6) at the ratio of 1:2, 0.5 ml of sample solution was added so as to obtain a reaction solution, which was reacted at 37° C. for 15 minutes. Then, 2% perchloric acid solution was added so as to stop the reaction and 100 μl of the solution was taken out. Water was added to the solution so that the total amount was 5 ml. Then, OD265 was measured. The value similarly measured at reaction time of 0 minute was defined as a blank. Under the above-mentioned conditions, a case where an absorbance difference is reduced by 0.001 during 60 minutes was defined as one unit.
Next, the relation between pH and activity of the obtained purified enzyme was examined. […] In the wide range of pH from about 4.5 to about 8.5, relatively high activity is observed. In the range of pH from about 5.0 to about 8.0, 70% or more of the reaction property is observed. Furthermore, it is shown that even in the case where pH is 9.0, about 40% of reactivity is obtained.

Substrate specificity [2] = assay type: biochemical; conditions: activity with respect to 5′ AMP = 100%
Text: It is reported that adenosine deaminase derived from Streptomyces aureofaciens has a wide range of substrate property, for example, catalytic ability of AMP (non-patent document 2). Taken this into consideration, in order to confirm whether deaminase derived from Streptomyces murinus obtained in the above-mentioned method is AMP-deaminase or adenosine-deaminase, the substrate specificity was investigated. Note here that the relative activity, when the enzyme activity with respect to 5′ AMP is defined as 100% is represented. […] In particular, the enzyme acted on 5′dAMP, ADP and ATP favorably. From the above-mentioned results, it was confirmed that the deaminase derived from Streptomyces murinus obtained by the above-mentioned method was AMP deaminase. Furthermore, it was determined that the enzyme was able to be employed preferably in a reaction using 5′dAMP, ADP and ATP as a substrate.
In order to determine whether the deaminase derived from transformant (SAD-1) obtained as mentioned above was AMP deaminase or Adenosine-deaminase, the substrate specificity was investigated. Note here that relative activities when the enzyme activity with respect to 5′ AMP was defined as 100% are represented. […] In particular, the enzyme acted on 5′-dAMP, ADP and ATP favorably. From the above-mentioned results, it was confirmed that deaminase derived from transformant (SAD-1) was similar to AMP deaminase derived from Streptomyces murinus and it was AMP deaminase. Furthermore, it was determined that the enzyme can be preferably used with respect to the reaction using 5′-dAMP, ADP and ATP as a substrate.

[3] = Contaminated phosphatase activity; assay type: biochemical; conditions: 37° C., pH 5.6
Experimental: To 1.5 ml of solution obtained by mixing 0.025M 5′IMP-2Na and 0.036M barbital sodium-hydrochloric acid buffer solution (pH 5.6) at the ratio of 1:2, 0.5 ml of sample solution was added so as to obtain a reaction solution, which was reacted at 37° C. for 30 minutes. After the reaction was completed, 200 μl of the solution was taken out, and 5 ml of 6% perchloric acid solution was added so as to stop the reaction. Amidol solution (0.05M, 0.25 ml) was added and mixed, followed by adding and mixing 0.25 ml of 0.067 M ammonium molybdate solution, and further adding and mixing 0.25 ml of water, which was allowed to stand in flowing water for 15 minutes. Then, OD265 was measured. A value similarly measured at the reaction time of 0 minute was defined as a blank. Under the above-mentioned conditions, a case where an absorbance difference is reduced by 0.001 during 30 minutes was defined as one unit.
The contaminated phosphatase activities concerning Aspergillus melleus and Streptomyces murinus were measured. In Aspergillus melleus, the contamination activity was observed. On the other hand, in Streptomyces murinus, the phosphatase activity was not observed.

Substrate specificity [4] = assay type: biochemical
[5] = pH stability of purified enzyme; assay type: physicochemical; conditions: pH from about 6.5 to about 8.0, 30° C. for 30 minutes; treatment at pH 7.0 = reference
Experimental: Next, pH stability of the enzyme was examined by the following procedure. An enzyme solution (0.15 ml) containing 2.8 μg protein (total amount) was adjusted to pH 3 to 8 by using McIlvaine buffer solution, and to pH 8 to 10 by using Atkins-pantin buffer solution. The solution was then allowed to stand at 30° C. for 30 minutes. Thereafter, the residual activity (percent with respect to the enzyme activity in the case where the treatment was carried out in pH 7.0) was measured. It is shown that in the range of pH from about 6.0 to about 8.5, relatively high activity is maintained, and in the range of pH from about 6.5 to about 8.0, about 80% or more of activity is maintained.

[6] = Thermostability of purified enzyme: residual activity after 30 minutes at each temperature; assay type: physicochemical
Experimental: as §1
Subsequently, the thermostability of the enzyme was examined by the following procedure. An enzyme solution (0.15 ml) containing 2.8 μg protein (total amount) was adjusted to pH 5.6 by using acetate buffer (pH 5.0), and then treated for 30 minutes at each temperature (40° C., 50° C., 60° C., 65° C., 70° C., and 75° C.). Then, the residual activity (percent with respect to the enzyme activity in the case where the treatment was not carried out) was measured. At 65° C. or less, about 90% or more of activity is maintained. Furthermore, also when the treatment is carried out at 70° C., about 55% of the activity is maintained.

Substrate specificity [7] = assay type: biochemical; remark: listed apart in the source
[8] = Enzyme kinetics (Km, Vmax); assay type: biochemical
[9] = Chromatofocusing (isoelectric point); assay type: physicochemical; conditions: 8.12 = main fraction; at least two isozymes
Experimental: In order to obtain an isoelectric point of AMP deaminase derived from Streptomyces murinus obtained by the above-mentioned method, chromatofocusing was carried out. By using MonoP column (Pharmacia), a starting buffer (Start Buffer) and an elution buffer (Poly buffer 96) were adjusted to pH 4.0 with 0.075M Tris acetate buffer (pH9.3) and with hydrochloric acid, respectively. The final amount was made to 100 ml. Furthermore, Pre-gradient with 3 ml, gradient elution with 30 ml and elution with 30 ml were carried out. From the results, it was thought that at least two isozymes were present (pI 8.12, 7.02), but the isoelectric point of main fraction was 8.12. Various properties, including the isoelectric point obtained from the above-mentioned results, of AMP deaminase derived from Streptomyces murinus, are shown in FIG. 11.

B1: AMP deaminase derived from Streptomyces murinus: thermostable AMP deaminase enzyme produced by Streptomyces murinus IFO14802; amino acid sequence SEQ ID NO: 1 (protein, listed as Streptomyces murinus)
chain: APPPRQATAAEARTDAYLRSVKDRPAALRAFFRQLPKGGDLHNHLSGAVNTDYLIELAAEDGLCIDATMTAVPSPCGPGTRPAADARTDRAFHDAIVRAWSMQDFPPDENGHDHFFDTFGKFGEVTWRHRGKLLAQVADTVVANNQSYLETMVTPASDGAKQLADQVGWDADLTALHRKLAAGGKLDKLVADARKEADDGDAEFRATEHCGTAKARPACGLTVRWISQASRGSSPVRVFTQLDLGMRLAEADSRFVAVNLVQPEDWDSSLENYSLQMRMVGYLRTVYPKAHVTLHAGELWPGLVKPEALKFHIAEAVDIAHTQRVGHGVDLVHEDNWQRTARTMAARQIAVEVPFSSNAQILGVKGAEHPFTTYRRYGVPVVLATDDPGVSRIDISHEYQYAAATYGLGYPELKDLARASLQYAFLPGASLWQGNPTAQGYHPVAACRAERPGQPVHSAACRRLLDGSARARLEWRQEAAFAAFERAHARG
optimum pH ([1]; McIlvaine buffer solution): around 5.6
relative activity (reactivity) ([1]; pH 9.0, activity at pH 5.6 = 100%): about 40%
relative activity (reaction property) ([1]; pH from about 5.0 to about 8.0, activity at pH 5.6 = 100%): ≥ 70%
action on substrate 2′AMP (Substrate specificity [2]): did not act on
action on substrate 3′5′-cyclic AMP (cAMP) (Substrate specificity [2]): also acted on
action on substrate 3′AMP (Substrate specificity [2]): also acted on
action on substrate 5′ AMP (Substrate specificity [2]): most favorably
action on substrate 5′dAMP (Substrate specificity [2]): favorably
action on substrate ADP (Substrate specificity [2]): favorably
action on substrate ATP (Substrate specificity [2]): favorably
action on substrate adenine (Substrate specificity [2]): did not act on
contaminated phosphatase activity [3]: not observed; also recorded: not detected
action on substrate 5′-UMP (Substrate specificity [4]): did not act on
residual activity [5]: ≥ 80%
temperature stability (stable at) ([6]; acetate buffer solution (pH 5.6)): ≤ 65 °C
residual activity ([6]; treated at 70° C. for 30 minutes, pH 5.6 acetate buffer, untreated = 100%): about 55%
action on substrate 5′-CMP (Substrate specificity [7]): did not act on
Km [8]: 950 µM
Vmax [8]: 3.5e+07 µmol/min/mg
isoelectric point (pI) [9]: 8.12 and 7.02

Source: US7709240B2, “AMP deaminase originating streptomyces and utilization thereof” (Amano Enzyme Inc., priority 2004, dated 2010)
